In patent publication US20260049134A1 (UNIVERSITY OF FLORIDA RESEARCH FOUNDATION, published 2026):
Residue numbers refer to the chain shown, from its start. Names may count otherwise. One block for each binder: values may come before it.

Key:
[1] = target: T1, ICAM1, endogenous in H929 multiple myeloma cells (human, UniProt P05362 28-532); assay: flow cytometry, H929 + NT Green siRNA; None 1.35
T1 construct: Native protein on H929 cells (flow cytometry, siRNA knockdown) and in H929 lysates (IP/MS); also called CD54

PTPRG on U266 cells = target: T2, PTPRG on U266 cells (human, UniProt P23470); assay: flow cytometry, IgG1 on cell lines, heatmap of % positive cells
T2 construct: endogenous on U266 multiple myeloma cells; also called HW-1 target on U266

[2] = target: T3, GARS, endogenous in H929 multiple myeloma cells (human, UniProt P41250 37-739, limits assumed); assay: IP from H929 cell lysate, LC-MS/MS
T3 construct: Native protein pulled down from H929 lysates; also called Glycyl-tRNA synthetase; GlyRS
T3 sequence: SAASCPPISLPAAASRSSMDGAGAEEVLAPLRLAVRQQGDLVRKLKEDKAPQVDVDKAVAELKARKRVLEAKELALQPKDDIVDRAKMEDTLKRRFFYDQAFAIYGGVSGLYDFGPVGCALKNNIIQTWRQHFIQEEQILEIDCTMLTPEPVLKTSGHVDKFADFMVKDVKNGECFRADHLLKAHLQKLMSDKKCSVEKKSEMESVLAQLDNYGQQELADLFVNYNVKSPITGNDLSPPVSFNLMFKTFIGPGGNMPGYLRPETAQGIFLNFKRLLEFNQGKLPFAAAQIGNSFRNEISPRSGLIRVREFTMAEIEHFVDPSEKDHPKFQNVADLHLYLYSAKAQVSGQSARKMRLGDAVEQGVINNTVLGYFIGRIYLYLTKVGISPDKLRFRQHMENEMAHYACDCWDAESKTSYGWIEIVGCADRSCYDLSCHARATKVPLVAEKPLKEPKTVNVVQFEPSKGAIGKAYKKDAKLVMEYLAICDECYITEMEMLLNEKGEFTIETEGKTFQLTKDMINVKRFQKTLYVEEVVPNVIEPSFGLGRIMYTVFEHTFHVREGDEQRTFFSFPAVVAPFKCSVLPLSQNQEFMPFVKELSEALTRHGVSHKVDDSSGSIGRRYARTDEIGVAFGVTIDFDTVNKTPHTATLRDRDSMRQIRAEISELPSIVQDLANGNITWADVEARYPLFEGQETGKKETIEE
Method: Immunoprecipitation. […] After 30 min of rocking at 4° C., and lysates were centrifuged at 18,400×g for 20 min at 4° C. Subsequently, 1-mL aliquots of the supernatants were pre-cleared twice with Protein G agarose (Thermo Fisher Scientific) by adding 50 μL of 50% resin slurry and incubating 30 min with end-over-end tumbling at 4° C., followed by centrifugation at 16,000×g for 5 min and pooling of the pre-cleared cell lysate aliquots. Representative mAbs from each cluster were immobilized on Protein G agarose at a ratio of 25 μg IgG1 per 30 μL of 50% slurry, diluted to 500 μL with Dulbecco's PBS (DPBS) and incubated for 1 h at 4° C. with tumbling, followed by centrifugation at 5,000×g for 30 s and 2 washes with lysis buffer. After the last wash, the ˜15 μL of IgG1-coated resin was blocked with 10 μL of 10% BSA (MilliporeSigma). Next, 1 mL of the pooled pre-cleared cell lysate was added to the IgG1-coated resin and incubated for 3 h at 4° C. with tumbling. […] Finally, 16 μL of the eluate (˜20%) was analyzed on a reducing SDS-PAGE gel stained with SYPRO Ruby dye (Bio-Rad Laboratories), while the rest was stored at −80° C. prior to LC-MS/MS analysis. […]

[3] = target: T4, PTPRG, endogenous in H929 multiple myeloma cells (human, UniProt P23470 20-1445); assay: flow cytometry, H929 + CDH18 siRNA; None 443
T4 construct: Native protein on H929 cells (flow cytometry, siRNA knockdown) and in H929 lysates (IP/MS); also called phosphatase receptor type γ

[4] = target: T5, CADM1, endogenous in H929 multiple myeloma cells (human, UniProt Q9BY67 45-442); assay: flow cytometry, H929 + CDH18 siRNA; None 443
T5 construct: Native protein on H929 cells (flow cytometry, siRNA knockdown) and in H929 lysates (IP/MS); RPMI-8226 cells were used for sorting with HW-97; also called IGSF4A
T5 sequence: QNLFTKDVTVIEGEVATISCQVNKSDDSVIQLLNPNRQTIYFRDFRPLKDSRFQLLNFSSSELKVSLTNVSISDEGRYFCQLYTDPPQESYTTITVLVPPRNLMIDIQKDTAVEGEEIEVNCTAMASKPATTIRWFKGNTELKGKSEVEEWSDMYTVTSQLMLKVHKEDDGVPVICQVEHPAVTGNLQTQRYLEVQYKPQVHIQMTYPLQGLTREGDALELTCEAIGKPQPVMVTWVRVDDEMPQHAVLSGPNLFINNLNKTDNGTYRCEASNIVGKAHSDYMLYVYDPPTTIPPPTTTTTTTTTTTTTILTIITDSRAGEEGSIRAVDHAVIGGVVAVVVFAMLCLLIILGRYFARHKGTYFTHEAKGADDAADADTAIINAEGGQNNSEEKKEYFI

[5] = target: T1, ICAM1, endogenous in H929 multiple …; assay: flow cytometry, H929 + PTPRG siRNA; None 2.13
[6] = target: T1, ICAM1, endogenous in H929 multiple …; assay: flow cytometry, H929 + CDH18 siRNA; None 443
[7] = target: T1, ICAM1, endogenous in H929 multiple …; assay: flow cytometry, H929 + PTPRG siRNA; None 490

T1 sequence (P05362 28-532 limits assumed): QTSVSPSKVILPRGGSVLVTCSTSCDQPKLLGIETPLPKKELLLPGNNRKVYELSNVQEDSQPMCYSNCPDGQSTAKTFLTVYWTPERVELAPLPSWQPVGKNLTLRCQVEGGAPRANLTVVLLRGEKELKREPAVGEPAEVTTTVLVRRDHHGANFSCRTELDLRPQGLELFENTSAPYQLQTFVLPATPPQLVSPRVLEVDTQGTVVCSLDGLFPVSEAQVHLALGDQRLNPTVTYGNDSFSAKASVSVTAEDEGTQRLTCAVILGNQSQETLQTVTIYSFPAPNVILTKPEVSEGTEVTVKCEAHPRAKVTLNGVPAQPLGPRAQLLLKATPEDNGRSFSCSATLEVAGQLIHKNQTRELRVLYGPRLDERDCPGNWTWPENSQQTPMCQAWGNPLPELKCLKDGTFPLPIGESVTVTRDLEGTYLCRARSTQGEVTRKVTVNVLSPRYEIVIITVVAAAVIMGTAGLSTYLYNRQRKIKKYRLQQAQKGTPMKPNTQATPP
T2 sequence (P23470 20-1445 limits assumed): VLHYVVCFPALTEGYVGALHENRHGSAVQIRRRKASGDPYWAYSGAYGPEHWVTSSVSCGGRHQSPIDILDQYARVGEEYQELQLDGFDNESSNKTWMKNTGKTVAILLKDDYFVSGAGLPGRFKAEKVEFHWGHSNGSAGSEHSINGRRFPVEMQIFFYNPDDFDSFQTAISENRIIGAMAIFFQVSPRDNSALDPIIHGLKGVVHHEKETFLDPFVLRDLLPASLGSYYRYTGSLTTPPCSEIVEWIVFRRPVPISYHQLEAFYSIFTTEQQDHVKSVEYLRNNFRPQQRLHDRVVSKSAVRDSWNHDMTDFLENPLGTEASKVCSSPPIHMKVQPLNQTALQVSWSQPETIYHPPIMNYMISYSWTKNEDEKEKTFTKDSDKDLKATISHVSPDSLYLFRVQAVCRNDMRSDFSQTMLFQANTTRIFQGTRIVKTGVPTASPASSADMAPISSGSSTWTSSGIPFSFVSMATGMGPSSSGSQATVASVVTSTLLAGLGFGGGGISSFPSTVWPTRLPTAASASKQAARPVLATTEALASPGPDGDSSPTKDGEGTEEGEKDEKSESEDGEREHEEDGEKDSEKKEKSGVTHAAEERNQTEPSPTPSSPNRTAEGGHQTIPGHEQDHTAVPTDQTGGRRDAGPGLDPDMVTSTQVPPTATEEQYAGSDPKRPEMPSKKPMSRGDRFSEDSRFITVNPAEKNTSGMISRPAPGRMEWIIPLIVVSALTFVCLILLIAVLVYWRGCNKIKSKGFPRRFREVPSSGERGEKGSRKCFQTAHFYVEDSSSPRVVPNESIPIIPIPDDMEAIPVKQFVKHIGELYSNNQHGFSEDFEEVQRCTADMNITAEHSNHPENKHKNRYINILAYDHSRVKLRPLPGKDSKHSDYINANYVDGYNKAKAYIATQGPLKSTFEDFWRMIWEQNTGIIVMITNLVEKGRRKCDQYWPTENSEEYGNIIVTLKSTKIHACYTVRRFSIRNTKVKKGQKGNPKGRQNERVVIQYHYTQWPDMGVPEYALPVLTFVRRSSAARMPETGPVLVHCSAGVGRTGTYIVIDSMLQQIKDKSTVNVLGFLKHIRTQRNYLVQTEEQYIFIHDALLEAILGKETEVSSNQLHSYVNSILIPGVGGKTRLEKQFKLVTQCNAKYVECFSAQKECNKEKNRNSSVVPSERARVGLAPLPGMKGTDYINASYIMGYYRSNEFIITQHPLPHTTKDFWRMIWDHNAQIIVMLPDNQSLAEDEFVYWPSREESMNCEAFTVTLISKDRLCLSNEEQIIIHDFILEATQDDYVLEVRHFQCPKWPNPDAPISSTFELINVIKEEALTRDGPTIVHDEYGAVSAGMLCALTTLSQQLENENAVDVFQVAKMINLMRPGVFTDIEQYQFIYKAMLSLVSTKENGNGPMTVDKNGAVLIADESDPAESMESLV
T4 sequence (P23470 20-1445 limits assumed): as above

Cells stained (%) [1]: 1.86%
B1: TH9-0022 (antibody, human IgG1, kappa, L234A L235A, V domains shown)
VH: QSLEESGGRLVTPGTPLTLTCTVSGFSLSSYAMNWVRQAPGKGLEWIGIINSYGSTYYASWAKGRFTISKTSTTVDLKITSPTTEDTATYFCARVTYDSYGYGYAPYGMDLWGPGTLVTVSS
VL: LVMTQTPSSTSNAVGGTVTIKCQASQSIGNVLAWYQQKPGQPPKLLIYAASTLASGVPSRVGGSRSGTEYTLTISGVQREDAATYYCLGSDSDSDIAFGGGTELEILR
notes: also called TH9-022; negative control

binding result (PTPRG on U266 cells): no binding
binding result [2]: no binding
B2: TH9-0022 (antibody, human IgG1, kappa, L234A L235A, V domains shown)
VH: B1 VH
VL: B1 VL
notes: also called TH9-022; negative control IgG1

mAb binding (MFI) [3]: 9870
B3: HW-42 chimeric rabbit-human IgG1 LA/LA/PG (antibody, V domains shown)
VH: QSVKESEGGLFKPADTLTLTCTVSGFSLSSNEISWVRQAPGEGLEYIGIIDTGGRAYYAVWARSRSTITRNTNLNTVTLKMTSLTAADTATYFCARGGVDTEWYAFSSWGPGTLVTVPS
VL: SFVLTQPASVQVNLGQTVSLTCTADTLSRRYASWYQQKPGQAPVLLIFRDTSRPSGVPDRFSGSSSGDTATLTISGAQAGDEADYYCATSDGSGSNYQYVFGGGTQLTVTG
notes: Fc-silenced (L234A/L235A/P329G) IgG1, lambda; Alexa Fluor 647-labeled in single-step flow cytometry; Cluster C-1

mAb binding (MFI) [4]: 17900
B4: HW-97 chimeric rabbit-human IgG1 LA/LA/PG (antibody, V domains shown)
VH: QKQLVESGGRLVTPGTPLTLTCTVTGIDLSSHGMSWVRQAPGKGLEWIGVIYPSGSTWYASWARGRFTISKTSTTVDLKMTSLTTEDTATHFCARGDVGGADNNIWGPGTLVTVSS
VL: B3 VL with N13D, D25E, R30S, F48Y, D68N, N96S
notes: Fc-silenced (L234A/L235A/P329G) IgG1, lambda; Alexa Fluor 647-labeled in single-step flow cytometry; Prototype of cluster C-97

binding result [2]: no binding
B5: HW-1 chimeric rabbit-human IgG1 LA/LA/PG (antibody, V domains shown)
VH: QSLEESGGGLFKPTDTLTLTCTASGFSLGSSYAISWVRQAPGKELEWIGTIDSGRAYYARWAKSRSTITRNTNENTVTLKMTSLTAADTATYFCARDLIPTYSQDIWGPGTLVTISS
VL: B3 VL with F48Y, D68N, S95N, N96S, G111S
notes: Fc-silenced (L234A/L235A/P329G) IgG1, lambda; Alexa Fluor 647-labeled in single-step flow cytometry; Prototype of cluster C-1

Cells stained (%) [5]: 98.2%
mAb binding (MFI) [6]: 18200
Cells stained (%) [1]: 99.8%
mAb binding (MFI) [7]: 27800
B6: HW-113 chimeric rabbit-human IgG1 LA/LA/PG (antibody, V domains shown)
VH: QKQLVESGGGLVQPGGSLTLTCTVSGFSLNKYYMGWFRQAPGKGLEWIGVISRSGDTYYSSWAKGRFTISKASTTVDLRITSPTTEDTATYFCARDASSPGFHGDRLDLWGQGTLVTVSS
VL: B3 VL with R30S, F48Y, D68N, S93I, Q98L, Y99W
notes: Fc-silenced (L234A/L235A/P329G) IgG1, lambda; Alexa Fluor 647-labeled in single-step flow cytometry
